Experimental findings from PMC11882435 are described below.

The target in this data set is RsmA (Pseudomonas aeruginosa) (UniProt O69078). The data set is described as follows: EMSA. The following applies: Filter binding: 10 mM Tris-HCl pH 7.5, 100 mM KCl, 10 mM MgCl2, 10 mM DTT, 10 ug/mL heparin, RNase inhibitor, 0.5 nM RNA, 37 C 30 min; Hill coefficient 2. A general note: A gel shift assay detects complexes by their altered migration in electrophoresis.
RsmA (Pseudomonas aeruginosa), sequence (O69078 whole entry): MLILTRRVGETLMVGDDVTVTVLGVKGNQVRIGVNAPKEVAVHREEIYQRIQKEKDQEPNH

The Kd is the concentration at which binding is half-saturated. Consider rhlI leader, for which the Kd is 20.9 nM.
